Assay results reported in US9873883B2, “Glyphosate resistant plants and associated methods” (Dow AgroSciences LLC, priority 2012, dated 2018).
Residue numbers refer to the chain shown, from its start. Numbers in names are those of the source. Where “and” joins values, the source holds several entries; their conditions need not be identical. Equal values may be shown once.

Legend:
Conditions in all cases: other: pH 7.5, 1 mM S3P
C=C(OP(=O)(O)O)C(=O)O = assay: purified protein, by the assay type
[1] = substrate: C=C(OP(=O)(O)O)C(=O)O; assay: purified protein, by the assay type; remark: listed apart in the source
[2] = substrate: C=C(OP(=O)(O)O)C(=O)O; assay: In vitro kinetic assay (inorganic phosphate production, malachite green); type: biochemical, Triticum aestivum
Excerpt: (§1) The following Class I enzymes: DGT-1 from Glycine max, DGT-3 from Brassica napus (GENBANK ACC NO: P17688), and DGT-7 from Triticum aestivum (GENBANK ACC NO: EU977181) were used as a comparison. The Class I EPSP synthase enzymes and mutant variants thereof were synthesized and evaluated. A mutation introduced into the plant EPSP synthase enzymes consisted of the Glycine to Alanine mutation made within the EPSP synthase enzyme at a similar location as that of the G96A mutation from the E. coli version of the enzyme. In addition, Threonine to Isoleucine and Proline to Serine mutations were introduced within these Class I EPSP synthase enzymes at analogous positions as that of amino acid 97 (T to I) and amino acid 101 (P to S) in the EPSP synthase of E. coli as described in Funke et al., (2009).
(§2) The location of the amino acid residue which was mutated from glycine to alanine is indicated by the first asterisk. The location of the amino acid residue which was mutated from threonine to isoleucine is indicated by the second asterisk. The location of the third amino acid residue which was mutated from proline to serine is indicated by the third asterisk. These mutations were introduced into different versions of DGT-1, DGT-3, and DGT-7. The different versions of the genes which contain the mutations are described in more detail below.
(§3) Additional constructs containing the dgt-1, dgt-3 and dgt-7 were synthesized. These constructs were used for in vitro testing of the dgt-1 v5, dgt-1 v6, dgt-1 v7, dgt-1 v8, dgt-3 v6, dgt-3 v7, dgt-3 v8, dgt-7 v5, dgt-7 v6, dgt-7 v7, and dgt-7 v8 gene sequences were outsourced to GeneArt for synthesis and cloning. The synthesized genes were cloned into the pET28 expression vector. The resulting constructions were labeled as pDAB102028 containing dgt-1 v5, pDAB102029 containing dgt-1 v6, pDAB102032 containing dgt-1 v7, pDAB102034 containing dgt-1 v8, pDAB100429 containing dgt-3 v6, pDAB100442 containing dgt-3 v7, pDAB100430 containing dgt-3 v8, pDAB102036 containing dgt-7 v5, pDAB102038 containing dgt-7 v6, pDAB102040 containing dgt-7 v7, and pDAB102042 containing dgt-7 v8.
(§4) Recombinant DGT proteins were overexpressed in Rosetta2™ (DE3) cells (Novagen, Madison, Wis.) from the constructs described above. A single colony was used to inoculate 50 mL starter cultures of LB containing chloramphenicol (25 μg/mL) and kanamycin (50 μg/mL) which were cultivated overnight at 37° C. The overnight cultures were used to inoculate 1 L of LB containing chloramphenicol (25 μg/mL) and kanamycin (50 μg/mL). The cultures were grown at 37° C. to an O.D.600=0.6 then placed in an ice water bath for 10 minutes. Expression of the target proteins was achieved by addition of IPTG to a final concentration of 500 μM. Induction was allowed to proceed overnight at 20° C. followed by harvesting via centrifugation at 8,000 rpm for 20 minutes. The cell pellets were stored at −80° C. until required for purification. All purification steps were carried out at 4° C.
(§5) Cell pellets from 1 L cultures were resuspended in 20-30 mL Buffer A (50 mM HEPES pH 7.5, 150 mM KCl, 2 mM DTT, 1 mM EDTA, 20 mM imidazole, and 5% glycerol). COMPLETE™ protease inhibitor cocktail (1 tablet/50 mL, Roche, Indianapolis, Ind.) and lysozyme (1 mg/mL, Sigma-Aldrich, St. Louis, Mo.) were then added and the suspension was stirred for 20 minutes. Cell lysis was performed using a Branson Sonifier 250 (3×60 second bursts) followed by removal of the cell debris by centrifugation at 16,000 rpm for 45 minutes. […]

[3] = substrate: C=C(OP(=O)(O)O)C(=O)O; assay: as above; type: biochemical, Brassica napus
Excerpt: as §1, §2, §3, §4, §5

[4] = substrate: C=C(OP(=O)(O)O)C(=O)O; assay: as above; type: biochemical, Glycine max
Excerpt: as §1, §2, §3, §4, §5

## bacterial EPSP synthase DGT-18 (GENBANK NP_928909.1) variant DGT-18 v6 (G→A at residue 96), SEQ ID NO:9 (Photorhabdus laumondii subsp. laumondii TTO1; G96A)
C=C(OP(=O)(O)O)C(=O)O
  Km: 375.9 µM
  kcat/Km: 40000 M⁻¹ s⁻¹

## bacterial EPSP synthase DGT-11 v6, native (GENBANK YP_989551.1), SEQ ID NO:5 (Bartonella bacilliformis INS)
C=C(OP(=O)(O)O)C(=O)O
  Km: 1576.6 µM
  kcat/Km: 50 M⁻¹ s⁻¹

## bacterial EPSP synthase DGT-29 (GENBANK YP_322772.1) variant DGT-29 v6 (G→A at residue 96), SEQ ID NO:11 (Trichormus variabilis ATCC 29413; G96A)
C=C(OP(=O)(O)O)C(=O)O
  Km: 1502.2 µM
  kcat/Km: 4000 M⁻¹ s⁻¹

## Mariprofundus ferrooxydans EPSP synthase DGT-14 v1, native wild type (GENBANK ZP_01452683; SEQ ID NO:17) (Mariprofundus ferrooxydans PV-1)
C=C(OP(=O)(O)O)C(=O)O
  Km: 208.6 µM

## bacterial EPSP synthase DGT-30 (GENBANK ZP_02156189.1) variant DGT-30 v6 (G→A at residue 96), SEQ ID NO:13 (Shewanella benthica KT99; G96A)
C=C(OP(=O)(O)O)C(=O)O
  Km: 414.9 µM
  kcat/Km: 30000 M⁻¹ s⁻¹

B1: Triticum aestivum (wheat) EPSP synthase DGT-7 v5, native (GENBANK EU977181), SEQ ID NO: 60 (Triticum aestivum) (protein)
chain: MATSVAAPAAPSGAEEVVLQPIREISGAVQLPGSKSLSNRILLLSALSEGTTVVDNLLNSEDVHYMLEALEALGLSVEADKVAKRAVVVGCGGRFPVEKDAQEEVKLFLGNAGTAMRPLTAAVVAAGGNATYVLDGVPRMRERPIGDLVVGLQQLGADADCFLGTNCPPVRINGKGGLPGGKVKLSGSISSQYLSSLLMAAPLALEDVEIEIIDKLISVPYVEMTLKLMERFGVTAEHSDSWDRFYIKGGQKYKSPGNAYVEGDASSASYFLAGAAITGGTVTVEGCGTTSLQGDVKFAEVLEMMGAKVTWTDTSVTVTGPPRQPFGRKHLKAVDVNMNKMPDVAMTLAVVALFADGPTAIRDVASWRVKETERMVAIRTELTKLGATVEEGPDYCIITPPEKLNITAIDTYDDHRMAMAFSLAACAEVPVTIRDPGCTRKTFPNYFDVLSTFVKN
[1]
  Km: 75.6 µM

B2: Triticum aestivum (wheat) EPSP synthase DGT-7 variant DGT-7 v7 (G→A, P→S; GAPS) (Triticum aestivum; G167A/P172S) (protein)
chain: B1 chain with G113A, P118S
notes: GAPS double mutant
[2]
  Km: 1103.2 µM
  kcat/Km: 14600 M⁻¹ s⁻¹

B3: Triticum aestivum (wheat) EPSP synthase DGT-7 variant DGT-7 v8 (T→I, P→S; TIPS) (Triticum aestivum; P172S/T168I) (protein)
chain: B1 chain with T114I, P118S
notes: TIPS double mutant
[2]
  Km: 60.5 µM

B4: Triticum aestivum (wheat) EPSP synthase DGT-7 variant DGT-7 v6 (G→A) (Triticum aestivum; G167A) (protein)
chain: B1 chain with G113A
[2]
  Km: 538.2 µM
  kcat/Km: 16100 M⁻¹ s⁻¹

B5: Brassica napus (canola) EPSP synthase DGT-3 (GENBANK P17688) variant DGT-3 v6 (G→A) (Brassica napus; G173A) (protein)
chain: KASEIVLQPIREISGLIKLPGSKSLSNRILLLAALSEGTTVVDNLLNSDDINYMLDALKKLGLNVERDSVNNRAVVEGCGGIFPASLDSKSDIELYLGNAATAMRPLTAAVTAAGGNASYVLDGVPRMRERPIGDLVVGLKQLGADVECTLGTNCPPVRVNANGGLPGGKVKLSGSISSQYLTALLMAAPLALGDVEIEIIDKLISVPYVEMTLKLMERFGVSAEHSDSWDRFFVKGGQKYKSPGNAYVEGDASSASYFLAGAAITGETVTVEGCGTTSLQGDVKFAEVLEKMGCKVSWTENSVTVTGPSRDAFGMRHLRAVDVNMNKMPDVAMTLAVVALFADGPTTIRDVASWRVKETERMIAICTELRKLGATVEEGSDYCVITPPAKVKPAEIDTYDDHRMAMAFSLAACADVPVTIKDPGCTRKTFPDYFQVLESITKH
notes: made in house; host or cells: E. coli Rosetta2 (DE3)
[3]
  Km: 1073.4 µM
  kcat/Km: 13900 M⁻¹ s⁻¹

B6: Brassica napus (canola) EPSP synthase DGT-3 (GENBANK P17688) variant DGT-3 v7 (G→A, P→S; GAPS) (Brassica napus; G173A/P178S) (protein)
chain: B5 chain with P106S
notes: as for B5
[3]
  Km: 2728.3 µM
  kcat/Km: 2280 M⁻¹ s⁻¹

B7: Brassica napus (canola) EPSP synthase DGT-3 (GENBANK P17688) variant DGT-3 v8 (T→I, P→S; TIPS) (Brassica napus; P178S/T174I) (protein)
chain: B5 chain with A101G, T102I, P106S
notes: as for B5
[3]
  Km: 196.8 µM

B8: Glycine max (soybean) EPSP synthase DGT-1 v5, native, SEQ ID NO: 59 (Glycine max) (protein)
chain: MASVAAAEKPSTSPEIVLEPIKDFSGTITLPGSKSLSNRILLLAALSEGTTVVDNLLYSEDIHYMLGALRTLGLRVEDDKTTKQAIVEGCGGLFPTSKESKDEINLFLGNAGTAMRPLTAAVVAAGGNASYVLDGVPRMRERPIGDLVAGLKQLGADVDCFLGTNCPPVRVNGKGGLPGGKVKLSGSVSSQYLTALLMAAPLALGDVEIEIVDKLISVPYVEMTLKLMERFGVSVEHSGNWDRFLVHGGQKYKSPGNAFVEGDASSASYLLAGAAITGGTITVNGCGTSSLQGDVKFAEVLEKMGAKVTWSENSVTVSGPPRDFSGRKVLRGIDVNMNKMPDVAMTLAVVALFANGPTAIRDVASWRVKETERMIAICTELRKLGATVEEGPDYCVITPPEKLNVTAIDTYDDHRMAMAFSLAACGDVPVTIKDPGCTRKTFPDYFEVLERLTKH
[1]
  Km: 70 µM and 73.0 µM

B9: Glycine max (soybean) EPSP synthase DGT-1 variant DGT-1 v8 (T→I, P→S; TIPS) (Glycine max; P187S/T183I) (protein)
chain: B8 chain with T113I, P117S
[4]
  Km: 151.4 µM

B10: Glycine max (soybean) EPSP synthase DGT-1 variant DGT-1 v6 (G→A) (Glycine max; G182A) (protein)
chain: B8 chain with G112A
[4]
  Km: 608.2 µM
  kcat/Km: 13400 M⁻¹ s⁻¹

B11: Glycine max (soybean) EPSP synthase DGT-1 variant DGT-1 v7 (G→A, P→S; GAPS) (Glycine max; G182A/P187S) (protein)
chain: B8 chain with G112A, P117S
[4]
  Km: 1291.2 µM
  kcat/Km: 6670 M⁻¹ s⁻¹
